{
  "source": "the DeepSol protein solubility set",
  "data": [
    {"assay": "soluble on expression in E. coli; label from the status in PepcDB or PDB records", "values": [
      {"sequence": "DEIVMDANAVLGPVDPQLGNFPAASILKVVKDKPIGEIDDQTLIMADLAGKAIQQVQRFVRTLLKDNIPKQKVNPENIESIIEALTTGRVTHDYPITVEEATEMGLPITVGLPRSIYELMDLYPQSQGGRPSVQYIPMPYDDRRPIL", "soluble on expression in E. coli": "not soluble"},
      {"sequence": "MGSDKIHHHHHHMNLVEISDIDKEILMKLEYEFPFDPQPFNIISDGLKISEEELLNRVKKLLEDGIIKRIGMYVSFRAKGMDGALIAARIPQDKIEKFRKIALGIRELTHNYVRDHPKFNIWFVLKANDRDTLNENVKELLSHVESNDYVILYSKKTLKLSVKYDVIRGVSWSPNNTIRSLSKVPTAEELGINKQLLTELSYPLKISQRPFKEIAEKYKMKEDELVELIKELYDKNVIKDYGATLNGEKIGIVENGMVLLDTSNVEQACEKLALNIPEATHVVLRESNDENWKYLCYSMIHASKKETIRNVAKEISKETNSRSYMILFSLENLKPGIVI", "soluble on expression in E. coli": "not soluble"},
      {"sequence": "MDREAFVQTLTACRLCPRLVAWREEVVGRKRAFRGEPYWARPVPGFGDPEARILLFGLAPGAHGSNRTGRPFTGDASGAFLYPLLHEAGLSSKPESLPGDDLRLYGVYLTAAVRCAPPKNKPTPEELRACARWTEVELGLLPEVRVYVALGRIALEALLAHFGLRKSAHPFRHGAHYPLPGGRHLLASYHVSRQNTQTGRLTREMFLEVLMEAKRLAGL", "soluble on expression in E. coli": "soluble"},
      {"sequence": "MSLGKEGLERLVYMVDRSDSLSLLQERIDSIEVVAPQVFSFTLEGTVYGEVDPRIIALAKERGKKLMPLVMNENFEKEKIKAFLANPKAQERLIGSLIKIALKEGFGGWQLDFEHLGITSKEAYTQLVRQLYARLKEHHLSLSIAVVPPRGEEPKNAYGAKVFEDWVSPYDLKALAEHSDFLTLMAYDQHTGGSTPGPIASRAWVEGIIQEALIWVPKEKLSLGIPLYSRLWHAGIKEEKMRGVAKSLTFAGAMDWLERQGAETLWLERDGVKWAMGERGGVKEYLFMEEARSLALKVELAKRYGLRGISLWRLGQEDPRIWDELEGHHHHHH", "soluble on expression in E. coli": "soluble"},
      {"sequence": "MAHHHHHHMSEGKRATSAAPEAKYNAYAEAADPDRYRVADALLFTCAEHGKACVLCVTAGKNGRSGRTAAVGATLFWLTCPNLNAIIARFEGHRCVQAVSAAMAQQPCLCDWHVQSHDVYASRAKDLLSPAQWCFFESHFLSDEQPSLHKYGNAAVSHASDMKCLHALVAQTLAGVANPVGSVVVNYILLQHKLVCEAADTGNTEQQGVEEKRLLMKATLNSTRLFSDFTTAFVRAASERPREDWHALHNVSFEVPLPEGNMWCKTAVQYMWQVDSQLAALCPDLCARALTVHVALGGPSRRRHKKHRMN", "soluble on expression in E. coli": "not soluble"},
      {"sequence": "GASMDAIKKKMQMLKLDKENALDRAEQAEADKDFYFGKLRNIELICQENEGENDPVLQRIVDILYATDEGFVIPD", "soluble on expression in E. coli": "soluble"},
      {"sequence": "FEPDDVTEDVIEWVYSTFDGSYDEQPFGGDWTDPEPFRWPVTRRQAVQALDHFVTNRLTEFGSYQDAMLEDEWAMSHSLLSTSLNLGLLGPAEVIERAITAYEDGDAPLNSVEGFIRQVLGWREFLRHVYRREM", "soluble on expression in E. coli": "not soluble"},
      {"sequence": "MSLQDLATLYPQKTWSVVNQQFSADQGQLAFAHANTLLALTKECQQPIIHFWTLEKTVILGMMDTKLPELTAATDQLTAAGYHYFVRNAGGLGIVADTGILNLGFYLPEVADHLSINAAYELMKTLFSETFNTSNITIEHFEVQHSYCPGEYDLSINGQKFAGIAQRRSKNGIAILLYASIEGDQQARGTLMQHFYQAGKAQQQTRWTFPDVHPETMANLADLLHQPLTVASVSQQLSASLQSNSGLTLQSDLQTLMQEADYQTQLTKNTQLLRRYQPGYQPEGHHHHHH", "soluble on expression in E. coli": "soluble"},
      {"sequence": "MGHHHHHHSHMLFSRIFMAGAPKFIKQLLLDLRNEIYCTILIVGDFNAPLTALDRSSRQKVHKETMGLHCILEQMDLTYIYRTFHPTTAEYTLFSSAHGTFFKIDHIIGHENKSQ", "soluble on expression in E. coli": "not soluble"},
      {"sequence": "GMPSEKQPQSKGNKMAILKLDEHLYISPQLTKADAEQIAQLGIKTIICNRPDREEESQPDFAQIKQWLEQAGVTGFHHQPVTARDIQKHDVETFRQLIGQAEYPVLAYCRTGTRCSLLWGFRRAAEGMPVDEIIRRAQAAGVNLENFRERLDNARV", "soluble on expression in E. coli": "soluble"},
      {"sequence": "MGSDKIHHHHHHMTAMRGDGGRVLHTGFGVVRGVLFDIDDTLVDLEYAMTTALRDVSEHLLPGLDQAGWEKFGRIFTHETTHFYDRYLAGELTFNEQRLLRGRAALGHFGVELEEGEESHAWVTSYAALQHGYVRAFEDVAPVLDALDAAGIPYGAVSNNVHDYQRVKLDAAGLQRITVLVGTDTLGVPKPDPAIYLEGVRLLGSSAAETLYVGDNRLLDAEGSTAAGLLGVWLNRSGETESAFAGHQVGSLAELLG", "soluble on expression in E. coli": "not soluble"},
      {"sequence": "MDNDKKDKIILSGELTNHRFNFTKDGENGYSAYEVDRFLDQLVHTLTHYEAQRNREEEMKTAYEKLFQDRDEILKRCSKLEAELNNFYENGYSNRVLISRVQALENKIESLPSGQNDRLERIEKLLKRVIKHWTDGEDLSYGDFDDDFF", "soluble on expression in E. coli": "soluble"},
      {"sequence": "SWKFSRYVRTQMQELEPWQLKQALKTHQGVLQATYEGLVAINSEGSLYLINDSARAMLNYHQELGNVFTDGIDNPESFSLKGDDYINGLIRVNGKNLVMNRVTLRTSTGEPYGAVFSLRDQNEMHVLSEKISQVTQYMENMRVARHEYQNKLSTISGLLQMGAYDKALSVCLSQAKASQSQLDSLHALNSRPALSALILAKASKANELGVALSIDCQSDLSALSRRLSEEQLCGLIGNLAQNALEAVKGQENGHVHIGISESACEYTIQVSNNGPLLESEFDVLCELGFTTKQNKADHGVGMYLVRSIVEQGNGHMELDSDEQETAFTIYFPKELG", "soluble on expression in E. coli": "not soluble"},
      {"sequence": "MFSVFEWILIFFGILNWFKFTQPSTPEPASRFFTRVCQQLRETVLIEIDSSGRVQPFVSIVEEGSKPYFSPHVGCAECMQWWDVYGEQPHRVEETEDQDTDEGVEEESEIEDSDFDDQITFVKPTTPAPLSPETENFIEDKMKFHFQATDIINEYLGKGTDMGIVSNLIRISQTYGVQLKQVSSGKSSMKEIEGILKSLQKEFEQEIEGLNGEISEAEENNESDIDESFEFVENLELDSDFE", "soluble on expression in E. coli": "not soluble"},
      {"sequence": "GNFTYAHSEFLKYEEPAYNEKYRSHIGQSLNQWYGLIAERLFIDEYDVQNSPKQTFGEYGAGDIKYRDVNGDGQITDADMVPLGYPTVPEIVYGFGFSFGNQRFDISAFFQGSARSSFWIDAKATSPFQHINPTDDDPYHQDIPLLKAYANDHWSESNRNLYAMWPRLSTTVIENNVRTSSWFMRNGAFLRLKTLEVGYTLPESWTKKAYISSARVYCSGNNLLLLSGFKLWDIEMGGSGLGYPIQRVINLGVQINF", "soluble on expression in E. coli": "not soluble"},
      {"sequence": "MGSDKIHHHHHHMLERRDKEITDLKRRVANMVVVGKISHVDHKNARYRVKTGNLVSDWIPDTQARAGKTRSYEGRDVGEQVVVVSSSGDLSQGVIVGSIHTDANQAADKGNLHKTLYPDGTTIEYDDEQNSYALHLTSGGKFSLTISDGVSIKGDGKKLELQAAEGIKIISQGDLSLSAEKNIALKAGGSVSLHSDDGIALHSSEGVSIHSSDLKHNGTNIGNSHVHGGVSPGGSMTGGPN", "soluble on expression in E. coli": "not soluble"},
      {"sequence": "MPDLFFVTLYDRQDLLKESMTFLNSEWPRSDGSREHSQKKSCRQSPPMSFLLLNKENDEILGHSRITHLPNRDHALWIESVMIKKDQRGLGLGKFLMKSTEKWMTEKGFNEAYLSTDDQCRFYESLGYEKCDPIVHSTTATCIFPAMNHFQNAAASNPSFLSKIAQPSASSTVSASAPPPPPPPPMAPKMVTRSTSPIVDVNTIDHQYMRKWLKPTE", "soluble on expression in E. coli": "soluble"},
      {"sequence": "MGSDKIHHHHHHMTMPYVKNTKEILEKASKERYAIGAFNFNNMEFLQAILEAAEEEKAPVIVATSEGAIKYIGKGDIETGAKLAVEMVRTYAEKLSVPVALHLDHGRDFKVIMAAIKAGYSSVMIDASHLPFEENLRETKRIVEIAHAVGISVEAELGKLKGIEDNVVEKESVLVDPEEAKVFVKETEVDFLAPAIGTSHGAFKFKGEAQLDFERLKKVKEYTQIPLVLHGASMVPQDIVKLANEYGAELSGAKGVPEDMLKKAIELGINKINTDTDLRITFVAYLRKVLSEDKSQIDPRKIFKPVFEQVKEIVKERIRIFGSSGKA", "soluble on expression in E. coli": "not soluble"},
      {"sequence": "GHHHHHHHHHHSSGHIEGRHNMPVVIKTEGPAWTPLEPKLITRLADTVRTKGLRSPITMAEVEALMSSPLLPHDVTNLMRVILGPAPYALWMDAWGVQLQTVIAAATRDPRHPANGQGRGERTNLDRLKGLADGMVGNPQGQAALLRPGELVAITASALQAFREVARLAEPAGPWADITQGPSESFVDFANRLIKAVEGSDLPPSARAPVIIDCFRQKSQPDIQQLIRAAPSTLTTPGEIIKYVLDRQKIAPLTDQGIAAAM", "soluble on expression in E. coli": "soluble"},
      {"sequence": "SQKLADFKLPQFFNYPPYFTLQPVRDTREKQIQLWKELILDYCKSQKIFLIGVEEDFPLFSNSAIDRSLSHEARETFLSAIVGEGRAEWLDKGHRKCLILWHRIQDWADIVLQFVRDNGLEDSVMTVEEIRSGTESLGTELQGIDRTILMRALKLLENKGKLALFKGTSADDEGVKFSV", "soluble on expression in E. coli": "soluble"},
      {"sequence": "MSGPAHLPYGGIPTFARAPLVQPDGDWQADVAALGVPFDIALGFRPGARFAPRALREASLRSVPPFTGLDGKTRLQGVTFADAGDVILPSLEPQLAHDRITEAARQVRGRCRVPVFLGGDHSVSYPLLRAFADVPDLHVVQLDAHLDFTDTRNDTKWSNSSPFRRACEALPNLVHITTVGLRGLRFDPEAVAAARARGHTIIPMDDVTADLAGVLAQLPRGQNVYFSVDVDGFDPAVIPGTSSPEPDGLTYAQGMKILAAAAANNTVVGLDLVELAPNLDPTGRSELLMARLVMETLCEVFDHVL", "soluble on expression in E. coli": "soluble"},
      {"sequence": "MAHHHHHHSLKDKPLKLTVEKLVYGGYGFSRLNGKAVFVRFASPKELVEAKVVKEKKDYTEAVVTKVLISSPARRKAPCPYYGECGGCQIQHLNYEEQLRSKKDILLESLERIGKIKEVPYEGEIPSKKEFNYRVRVQFKIQENRVGFYRWDVKEVVDVEECLLAHERINELIPHIREVLKVIKDLQEVHVNYSPTRDEATLKFVTITHTDEKLLQNILENVLPEWVVGIGDYGKVGNSLVKRYKVGREHIFMDVGKWQYRVSNDSFFQVNYTLWEDFLKEVLDFSESYKKGLDLHCGVGFFTIPLSEQGNFIEGADANPSAIKDAEYNAKINNRDNVIFEEATAFKHLKRRIGEVINLVVVDPPRSGLLREERDLLLKNKPDKIVYISCNPTTFARDLKILTKGGYELKRLKLIDNFPQTYHIESIALLEVKDEG", "soluble on expression in E. coli": "soluble"},
      {"sequence": "MDNLKDFKNEALVVTNASDGNTPHIVQGIEPDGSLRTKPLAQAKPSETFLHIDRNKSVIGTFFSNMNRQYDRPSDFRFYHLPVEMLSAAKDLVEIFKFPEENGQLLSNYAIDIRQPAQEQSITGDTPQQTTRWGVDEVDWQQLARMGVTPESLGETGMQRLLNGHESAVLDIRISFEGIDFETPACIRLVESAGGKPVLNVECCKRYPELDRPYMGTELSPEVKENLSRSNNAGCVVELELAGGVREPCLLSLNPKTNRLHHVPVSEITIPQEVNRVRLSDDQTTRLARGESVLVENMWSEKKQGYYDARLQYNVCKGGFTYDFRGLNRKQAQSETQMRSRELVIPQVLKGVGLTPEVREKLAAGKTVHIKDMTDNEGNLFSAFVRVNHERAKFDFFKWNPDKSKKQGQSQQAAVRQEGTKPENTVSRNRPVQKTDKKGVSI", "soluble on expression in E. coli": "not soluble"},
      {"sequence": "MSLGPADGGGDLVGVAGRESWVQTVPYGMVVCPSGTFHMGQADEDVPATQINLNKQVTIGGFYMDETEITNNEYRQFMNVMLEDSVATLGEEYIMTELYPDTTVWVRDFSHHMGDPMMEYYYAHPAFDEYPVVGVDWWAAKYFCEWRTQHMNNWRAENGLWQMPRFRLPSEAEWEYAARGGRDMAKYPWGNPYIRNSKGCMLANFKPGRGNYYDDGFMYTSPVASYFSNDFGLYDMAGNISEWCEDAYYDAAVPIVWDLNPTYYNDDEVRKIIRGGSWKDIAYYLETGTRTFEYQDTSKSYIGFRTVMTYLGRSSGYEGHHHHHH", "soluble on expression in E. coli": "not soluble"}
    ]}
  ]
}
